In PMC8491169 (Experimental eye research, 2021):

Target: full-length recombinant human proteoglycan 4 (rhPRG4) (human, UniProt Q92954 25-1404)
Assay: SPR

Kd: 42.1 nM
koff: 0.000937 s⁻¹
kon: 22300 M⁻¹ s⁻¹
B1: recombinant human matrix metalloproteinase 9 (rhMMP-9) (enzyme)
chain: APRQRQSTLVLFPGDLRTNLTDRQLAEEYLYRYGYTRVAEMRGESKSLGPALLLLQKQLSLPETGELDSATLKAMRTPRCGVPDLGRFQTFEGDLKWHHHNITYWIQNYSEDLPRAVIDDAFARAFALWSAVTPLTFTRVYSRDADIVIQFGVAEHGDGYPFDGKDGLLAHAFPPGPGIQGDAHFDDDELWSLGKGVVVPTRFGNADGAACHFPFIFEGRSYSACTTDGRSDGLPWCSTTANYDTDDRFGFCPSERLYTQDGNADGKPCQFPFIFQGQSYSACTTDGRSDGYRWCATTANYDRDKLFGFCPTRADSTVMGGNSAGELCVFPFTFLGKEYSTCTSEGRGDGRLWCATTSNFDSDKKWGFCPDQGYSLFLVAAHEFGHALGLDHSSVPEALMYPMYRFTEGPPLHKDDVNGIRHLYGPRPEPEPRPPTTTTPQPTAPPTVCPTGPPTVHPSERPTAGPTGPPSAGPTGPPTAGPSTATTVPLSPVDDACNVNIFDAIAEIGNQLYLFKDGKYWRFSEGRGSRPQGPFLIADKWPALPRKLDSVFEERLSKKLFFFSGRQVWVYTGASVLGPRRLDKLGLGADVAQVTGALRSGRGKMLLFSGRRLWRFDVKAQMVDPRSASEVDRMFPGVPLDTHDVFQYREKAYFCQDRFYWRVSSRSELNQVDQVGYVTYDILQCPED
